The values below come from patent US20160145343A1.

First the molecules themselves.
B1: M3 (antibody, human IgG1, lambda, V domains shown)
VH: QLQLQESGPGLVKPSETLSLTCTVSGGSISSSSYYWGWIRQPPGKGLEWIGSIYYSGSTHYNPSLKSRVTISVDTSKNQFSLKLRSVTAADTAVYYCARGVVEVRGNHYYYYYMDVWGKGTTVTVSS
VL: QSVLTQPPSVSGAPGQRVTISCTGSSSNIGAGYDVHWYQQLPGTAPKLLIYGNSYRPSGVPDRFSGSKSGTSASLAITGLQAEDEADYYCQSYDSSLSGSGVFGGGTKLTVLG
B2: M20 (antibody, human IgG1, kappa, V domains shown)
VH: EVQLVESGGGLVQPGGSLRLSCAASGFTFSSYWMHWVRQAPGKGLVWVSHINSDGSSTSYADSVKGRFTISRDNAKNTLYLQMNSLRAEDTAVYYCARELADWGQGTLVTVSS
VL: DVVMTQSPLSLPVTLGQPASISCRSSQSLVYSDGNTYLNWFQQRPGQSPRRLIYQVSNRDSGVPDRFSGSGSGTDFTLKIGRVEAEDVGVYFCMQGTHWPWTFGQGTKVEIKR
B3: M21 (antibody, human IgG1, kappa, V domains shown)
VH: EVQLVESGGGLVQPGGSLRLSCAASGFTVSSNYMSWVRQAPGKGLEWVSVIYSGGSTYYADSVKGRFTISRDNSKNTLYLQMNSLRAEDTAVYYCARDQEHYFDGSGYYVDYWGQGTLVTVSS
VL: B2 VL
B4: M22 (antibody, human IgG1, kappa, V domains shown)
VH: EVQLVESGGGLVQPGGSLRLSCAASGFTVSSNYMSWVRQAPGKGLEWVSVIYSGGTTYYADSVKGRFTISRHNSKNTLYLQMNSLRAEDTAVYYCARDHDPDYGGYYMDVWGKGTTVTVSS
VL: B2 VL
B5: M7 (antibody, human IgG1, kappa, V domains shown)
VH: EVQLVESGGGLVQPGGSLRLSCAASGFTVSSNYMSWVRQAPGKGLEWVSVIYSGGSTYYADSVKGRFTISRDNSKNTLYLQMNSLRAEDTAVYYCARGSTNTYYYDSSGHPWGQGTMVTVSS
VL: DIVMTQSPLSLPATPGEPASISCRSSQSLLHSNGYTYLDWYLQKPGQSPQVLIYLASNRASGVPDRFSGSGSGTNFTLKISRVEAEDVGLFYCMQALQTPQTFGQGTKLEIKR

BSA, sequence (P02769 25-607 limits assumed): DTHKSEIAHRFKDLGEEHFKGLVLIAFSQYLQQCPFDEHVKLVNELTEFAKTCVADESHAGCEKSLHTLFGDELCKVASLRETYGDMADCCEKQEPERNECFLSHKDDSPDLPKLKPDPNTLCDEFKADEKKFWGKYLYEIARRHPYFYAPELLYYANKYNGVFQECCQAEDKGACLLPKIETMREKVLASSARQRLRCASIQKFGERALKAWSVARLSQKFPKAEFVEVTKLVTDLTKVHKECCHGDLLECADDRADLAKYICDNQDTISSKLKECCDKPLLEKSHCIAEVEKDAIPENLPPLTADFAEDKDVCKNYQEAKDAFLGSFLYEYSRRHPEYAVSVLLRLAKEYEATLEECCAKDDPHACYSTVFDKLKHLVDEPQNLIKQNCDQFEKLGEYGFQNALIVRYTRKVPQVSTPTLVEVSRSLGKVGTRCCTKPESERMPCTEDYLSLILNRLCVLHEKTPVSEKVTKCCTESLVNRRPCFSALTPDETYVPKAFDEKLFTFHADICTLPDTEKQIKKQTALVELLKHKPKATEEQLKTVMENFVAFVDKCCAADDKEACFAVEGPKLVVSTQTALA

The first experiment deals with Normal MUC1 on non-transformed MCF-10A cells and on normal tissue (human) (UniProt P15941). The experiment is described as follows: flow cytometry, MCF10a cells.
For the molecule B1, the percentage of APC+ stained cells stood at 3.14%.

For the molecule B2, the percentage of APC+ stained cells turned out to be 4.45%.

As for B3, the percentage of APC+ stained cells stood at 2.67%.

B4 yielded a percentage of APC+ stained cells of 2.17%.

Turning to B5, the percentage of APC+ stained cells stood at 0.95%.

The next experiment concerns the target SEQ ID NO: 346 glycopeptide with Tn-antigen at Thr4, Thr9 and Thr16. The experiment is described as follows: ELISA on coated glycopeptide, antibody 0.01 mg/ml, mean of 3. (In an ELISA, binding on a coated surface is turned into a signal by an enzyme label.)
For the molecule B2, the ELISA absorbance at 450 nm is 0.1 absorbance.

Consider B3, for which the ELISA absorbance at 450 nm was 0.1 absorbance.

Consider B4, for which the ELISA absorbance at 450 nm was 0.1 absorbance.

The next experiment has as its target SEQ ID NO: 346 glycopeptide with TF-antigen at Thr16. The experiment is described as above.
B2 showed an ELISA absorbance at 450 nm of 0.1 absorbance.

For B3, the ELISA absorbance at 450 nm worked out at 0.1 absorbance.

B4 had an ELISA absorbance at 450 nm of 0.1 absorbance.

Another experiment addresses BSA (UniProt P02769). The experiment is described as follows: ELISA on coated BSA, antibody 0.01 mg/ml, mean of 3.
Regarding B1, the ELISA absorbance at 450 nm was 0.1 absorbance.

B2 gave an ELISA absorbance at 450 nm of 0.1 absorbance.

The molecule B3 displayed an ELISA absorbance at 450 nm of 0.1 absorbance.

In turn, B4 registered an ELISA absorbance at 450 nm of 0.1 absorbance.

B5 returned an ELISA absorbance at 450 nm of 0.1 absorbance.
